Earlier results as cited in article PMC8989918.

How the values were obtained:
[1] = molecular target: PTPN12 (PTP-PEST) (Homo sapiens) (UniProt Q05209)
[2] = molecular target: PTPN22 SH3-binding peptide (Homo sapiens) (UniProt Q9Y2R2)
Chain of PTPN22 SH3-binding peptide (Homo sapiens) (Q9Y2R2 whole entry): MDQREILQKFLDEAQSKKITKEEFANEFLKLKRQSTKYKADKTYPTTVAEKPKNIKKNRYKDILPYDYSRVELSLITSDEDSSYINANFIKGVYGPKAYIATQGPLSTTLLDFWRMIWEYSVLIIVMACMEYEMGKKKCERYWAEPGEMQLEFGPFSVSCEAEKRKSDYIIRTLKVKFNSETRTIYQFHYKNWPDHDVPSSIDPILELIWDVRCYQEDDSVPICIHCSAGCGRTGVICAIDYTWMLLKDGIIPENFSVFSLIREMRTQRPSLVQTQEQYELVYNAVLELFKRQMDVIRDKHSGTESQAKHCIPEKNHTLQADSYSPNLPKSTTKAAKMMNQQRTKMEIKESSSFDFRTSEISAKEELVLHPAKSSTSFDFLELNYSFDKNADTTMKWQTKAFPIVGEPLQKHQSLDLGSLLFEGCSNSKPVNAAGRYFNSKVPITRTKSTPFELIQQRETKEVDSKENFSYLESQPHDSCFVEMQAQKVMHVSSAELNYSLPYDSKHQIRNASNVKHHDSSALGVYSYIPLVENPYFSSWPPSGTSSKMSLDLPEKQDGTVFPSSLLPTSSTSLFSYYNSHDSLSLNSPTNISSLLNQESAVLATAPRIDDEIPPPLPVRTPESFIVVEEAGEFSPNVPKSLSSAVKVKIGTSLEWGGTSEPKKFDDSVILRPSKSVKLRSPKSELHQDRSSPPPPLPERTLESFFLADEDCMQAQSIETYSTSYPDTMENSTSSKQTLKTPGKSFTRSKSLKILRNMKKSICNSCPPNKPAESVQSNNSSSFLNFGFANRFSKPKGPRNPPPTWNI

Chain of Csk SH3 (P41240 6-73): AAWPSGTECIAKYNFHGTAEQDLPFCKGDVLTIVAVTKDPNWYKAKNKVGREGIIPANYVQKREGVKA
Chain of PTPN12 (PTP-PEST) (Homo sapiens) (Q05209 whole entry): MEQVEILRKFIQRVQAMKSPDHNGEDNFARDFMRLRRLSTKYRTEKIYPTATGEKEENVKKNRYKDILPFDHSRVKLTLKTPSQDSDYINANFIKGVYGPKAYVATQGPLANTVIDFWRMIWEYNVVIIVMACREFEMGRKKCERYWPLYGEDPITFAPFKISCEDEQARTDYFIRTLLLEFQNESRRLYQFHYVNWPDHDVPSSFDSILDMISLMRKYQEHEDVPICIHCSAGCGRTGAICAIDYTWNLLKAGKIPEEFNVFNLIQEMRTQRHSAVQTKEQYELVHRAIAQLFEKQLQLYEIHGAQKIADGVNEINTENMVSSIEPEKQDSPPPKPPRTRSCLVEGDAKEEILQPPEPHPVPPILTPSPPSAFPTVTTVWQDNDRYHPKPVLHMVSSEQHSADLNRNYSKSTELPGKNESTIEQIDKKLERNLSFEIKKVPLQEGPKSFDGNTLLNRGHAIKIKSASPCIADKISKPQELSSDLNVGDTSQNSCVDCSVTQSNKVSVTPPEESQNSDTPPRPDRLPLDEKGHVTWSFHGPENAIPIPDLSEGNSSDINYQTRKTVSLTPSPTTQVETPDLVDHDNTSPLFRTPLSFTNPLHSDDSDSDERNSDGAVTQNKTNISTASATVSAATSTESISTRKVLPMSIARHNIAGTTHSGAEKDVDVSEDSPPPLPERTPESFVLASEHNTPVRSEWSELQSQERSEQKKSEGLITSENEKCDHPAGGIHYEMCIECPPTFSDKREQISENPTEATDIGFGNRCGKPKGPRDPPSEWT

Kd [1]: 8 µM
Kd [2]: 0.8 µM
Substance: Csk SH3 (from UniProt P41240)
